# Measurements from patent US20220204580A1 (AstraZeneca / MedImmune, published 2022).
# Numbered stars: 1 amine (or outer) side, 2 acyl side, 3 side chain; on linkers, the order of the positions; unused ones are H or OH. Bridge positions count the residues as written; N and C are the ends. Square brackets hold non-standard residues; d marks the D form. Side chains are listed from the residue outwards. Ends that are not written are not given here. * marks the point of attachment. C18 diacid = O=C(O)CCCCCCCCCCCCCCCCC(=O)*; γGlu = O=C(O)[C@H](CCC(=O)[*:2])N[*:1]; αMeF = C[C@](N)(Cc1ccccc1)C(=O)O; αMeS = C[C@](N)(CO)C(=O)O; Dab = NCC[C@H](N)C(=O)O; Aib = CC(C)(N)C(=O)O
# B1: Peptide 27 (SEQ ID NO: 27) (peptide)
# peptide: K([γGlu-γGlu-C18 diacid])CNIATCATQRLANFLVHSS[Dab]NFGPILPPTNVGSRTY-NH2
# modifications: disulfide 2-7; N-terminus assumed
# SMILES: CC[C@H](C)[C@@H]1NC(=O)[C@H](CC(N)=O)NC(=O)[C@@H](NC(=O)[C@@H](N)CCCCNC(=O)CC[C@H](NC(=O)CC[C@H](NC(=O)CCCCCCCCCCCCCCCCC(=O)O)C(=O)O)C(=O)O)CSSC[C@@H](C(=O)N[C@@H](C)C(=O)N[C@H](C(=O)N[C@@H](CCC(N)=O)C(=O)N[C@@H](CCCNC(=N)N)C(=O)N[C@@H](CC(C)C)C(=O)N[C@@H](C)C(=O)N[C@@H](CC(N)=O)C(=O)N[C@@H](Cc2ccccc2)C(=O)N[C@@H](CC(C)C)C(=O)N[C@H](C(=O)N[C@@H](Cc2c[nH]cn2)C(=O)N[C@@H](CO)C(=O)N[C@@H](CO)C(=O)N[C@@H](CCN)C(=O)N[C@@H](CC(N)=O)C(=O)N[C@@H](Cc2ccccc2)C(=O)NCC(=O)N2CCC[C@H]2C(=O)N[C@H](C(=O)N[C@@H](CC(C)C)C(=O)N2CCC[C@H]2C(=O)N2CCC[C@H]2C(=O)N[C@H](C(=O)N[C@@H](CC(N)=O)C(=O)N[C@H](C(=O)NCC(=O)N[C@@H](CO)C(=O)N[C@@H](CCCNC(=N)N)C(=O)N[C@H](C(=O)N[C@@H](Cc2ccc(O)cc2)C(N)=O)[C@@H](C)O)C(C)C)[C@@H](C)O)[C@@H](C)CC)C(C)C)[C@@H](C)O)NC(=O)[C@H]([C@@H](C)O)NC(=O)[C@H](C)NC1=O
# B2: Peptide 25 (SEQ ID NO: 25) (peptide)
# peptide: K([γGlu-C18 diacid])CNTATCATQRLANFLVHSSNN[αMeF]GPILPPTRVGSNTY-NH2
# modifications: disulfide 2-7; N-terminus assumed
# SMILES: CC[C@H](C)[C@H](NC(=O)[C@@H]1CCCN1C(=O)CNC(=O)[C@](C)(Cc1ccccc1)NC(=O)[C@H](CC(N)=O)NC(=O)[C@H](CC(N)=O)NC(=O)[C@H](CO)NC(=O)[C@H](CO)NC(=O)[C@H](Cc1c[nH]cn1)NC(=O)[C@@H](NC(=O)[C@H](CC(C)C)NC(=O)[C@H](Cc1ccccc1)NC(=O)[C@H](CC(N)=O)NC(=O)[C@H](C)NC(=O)[C@H](CC(C)C)NC(=O)[C@H](CCCNC(=N)N)NC(=O)[C@H](CCC(N)=O)NC(=O)[C@@H](NC(=O)[C@H](C)NC(=O)[C@@H]1CSSC[C@H](NC(=O)[C@@H](N)CCCCNC(=O)CC[C@H](NC(=O)CCCCCCCCCCCCCCCCC(=O)O)C(=O)O)C(=O)N[C@@H](CC(N)=O)C(=O)N[C@@H]([C@@H](C)O)C(=O)N[C@@H](C)C(=O)N[C@@H]([C@@H](C)O)C(=O)N1)[C@@H](C)O)C(C)C)C(=O)N[C@@H](CC(C)C)C(=O)N1CCC[C@H]1C(=O)N1CCC[C@H]1C(=O)N[C@H](C(=O)N[C@@H](CCCNC(=N)N)C(=O)N[C@H](C(=O)NCC(=O)N[C@@H](CO)C(=O)N[C@@H](CC(N)=O)C(=O)N[C@H](C(=O)N[C@@H](Cc1ccc(O)cc1)C(N)=O)[C@@H](C)O)C(C)C)[C@@H](C)O
# B3: Peptide 21 (SEQ ID NO: 21) (peptide)
# peptide: K([γGlu-γGlu-C18 diacid])CNTATCATQRLANFLVHSSNN[αMeF]GPILPPTNVGSRTY-NH2
# modifications: disulfide 2-7; N-terminus assumed
# SMILES: CC[C@H](C)[C@H](NC(=O)[C@@H]1CCCN1C(=O)CNC(=O)[C@](C)(Cc1ccccc1)NC(=O)[C@H](CC(N)=O)NC(=O)[C@H](CC(N)=O)NC(=O)[C@H](CO)NC(=O)[C@H](CO)NC(=O)[C@H](Cc1c[nH]cn1)NC(=O)[C@@H](NC(=O)[C@H](CC(C)C)NC(=O)[C@H](Cc1ccccc1)NC(=O)[C@H](CC(N)=O)NC(=O)[C@H](C)NC(=O)[C@H](CC(C)C)NC(=O)[C@H](CCCNC(=N)N)NC(=O)[C@H](CCC(N)=O)NC(=O)[C@@H](NC(=O)[C@H](C)NC(=O)[C@@H]1CSSC[C@H](NC(=O)[C@@H](N)CCCCNC(=O)CC[C@H](NC(=O)CC[C@H](NC(=O)CCCCCCCCCCCCCCCCC(=O)O)C(=O)O)C(=O)O)C(=O)N[C@@H](CC(N)=O)C(=O)N[C@@H]([C@@H](C)O)C(=O)N[C@@H](C)C(=O)N[C@@H]([C@@H](C)O)C(=O)N1)[C@@H](C)O)C(C)C)C(=O)N[C@@H](CC(C)C)C(=O)N1CCC[C@H]1C(=O)N1CCC[C@H]1C(=O)N[C@H](C(=O)N[C@@H](CC(N)=O)C(=O)N[C@H](C(=O)NCC(=O)N[C@@H](CO)C(=O)N[C@@H](CCCNC(=N)N)C(=O)N[C@H](C(=O)N[C@@H](Cc1ccc(O)cc1)C(N)=O)[C@@H](C)O)C(C)C)[C@@H](C)O
# B4: Peptide 23 (SEQ ID NO: 23) (peptide)
# peptide: K([γGlu-γGlu-C18 diacid])CNTATCATQRLANFLVHSSNN[αMeF]GPILPPTEVGSNTY-NH2
# modifications: disulfide 2-7; N-terminus assumed
# SMILES: CC[C@H](C)[C@H](NC(=O)[C@@H]1CCCN1C(=O)CNC(=O)[C@](C)(Cc1ccccc1)NC(=O)[C@H](CC(N)=O)NC(=O)[C@H](CC(N)=O)NC(=O)[C@H](CO)NC(=O)[C@H](CO)NC(=O)[C@H](Cc1c[nH]cn1)NC(=O)[C@@H](NC(=O)[C@H](CC(C)C)NC(=O)[C@H](Cc1ccccc1)NC(=O)[C@H](CC(N)=O)NC(=O)[C@H](C)NC(=O)[C@H](CC(C)C)NC(=O)[C@H](CCCNC(=N)N)NC(=O)[C@H](CCC(N)=O)NC(=O)[C@@H](NC(=O)[C@H](C)NC(=O)[C@@H]1CSSC[C@H](NC(=O)[C@@H](N)CCCCNC(=O)CC[C@H](NC(=O)CC[C@H](NC(=O)CCCCCCCCCCCCCCCCC(=O)O)C(=O)O)C(=O)O)C(=O)N[C@@H](CC(N)=O)C(=O)N[C@@H]([C@@H](C)O)C(=O)N[C@@H](C)C(=O)N[C@@H]([C@@H](C)O)C(=O)N1)[C@@H](C)O)C(C)C)C(=O)N[C@@H](CC(C)C)C(=O)N1CCC[C@H]1C(=O)N1CCC[C@H]1C(=O)N[C@H](C(=O)N[C@@H](CCC(=O)O)C(=O)N[C@H](C(=O)NCC(=O)N[C@@H](CO)C(=O)N[C@@H](CC(N)=O)C(=O)N[C@H](C(=O)N[C@@H](Cc1ccc(O)cc1)C(N)=O)[C@@H](C)O)C(C)C)[C@@H](C)O
# B5: Peptide 26 (SEQ ID NO: 26) (peptide)
# peptide: K([γGlu-γGlu-C18 diacid])CNTATCATQRLANFL[Aib]HSSNN[αMeF]GPILPPTNVGSNTY-NH2
# modifications: disulfide 2-7; N-terminus assumed
# SMILES: CC[C@H](C)[C@H](NC(=O)[C@@H]1CCCN1C(=O)CNC(=O)[C@](C)(Cc1ccccc1)NC(=O)[C@H](CC(N)=O)NC(=O)[C@H](CC(N)=O)NC(=O)[C@H](CO)NC(=O)[C@H](CO)NC(=O)[C@H](Cc1c[nH]cn1)NC(=O)C(C)(C)NC(=O)[C@H](CC(C)C)NC(=O)[C@H](Cc1ccccc1)NC(=O)[C@H](CC(N)=O)NC(=O)[C@H](C)NC(=O)[C@H](CC(C)C)NC(=O)[C@H](CCCNC(=N)N)NC(=O)[C@H](CCC(N)=O)NC(=O)[C@@H](NC(=O)[C@H](C)NC(=O)[C@@H]1CSSC[C@H](NC(=O)[C@@H](N)CCCCNC(=O)CC[C@H](NC(=O)CC[C@H](NC(=O)CCCCCCCCCCCCCCCCC(=O)O)C(=O)O)C(=O)O)C(=O)N[C@@H](CC(N)=O)C(=O)N[C@@H]([C@@H](C)O)C(=O)N[C@@H](C)C(=O)N[C@@H]([C@@H](C)O)C(=O)N1)[C@@H](C)O)C(=O)N[C@@H](CC(C)C)C(=O)N1CCC[C@H]1C(=O)N1CCC[C@H]1C(=O)N[C@H](C(=O)N[C@@H](CC(N)=O)C(=O)N[C@H](C(=O)NCC(=O)N[C@@H](CO)C(=O)N[C@@H](CC(N)=O)C(=O)N[C@H](C(=O)N[C@@H](Cc1ccc(O)cc1)C(N)=O)[C@@H](C)O)C(C)C)[C@@H](C)O
# Legend:
# [1] = target: T1, human calcitonin receptor (human, UniProt P30988 25-474); assay: cell-based or functional assay
# T1 sequence (looked up): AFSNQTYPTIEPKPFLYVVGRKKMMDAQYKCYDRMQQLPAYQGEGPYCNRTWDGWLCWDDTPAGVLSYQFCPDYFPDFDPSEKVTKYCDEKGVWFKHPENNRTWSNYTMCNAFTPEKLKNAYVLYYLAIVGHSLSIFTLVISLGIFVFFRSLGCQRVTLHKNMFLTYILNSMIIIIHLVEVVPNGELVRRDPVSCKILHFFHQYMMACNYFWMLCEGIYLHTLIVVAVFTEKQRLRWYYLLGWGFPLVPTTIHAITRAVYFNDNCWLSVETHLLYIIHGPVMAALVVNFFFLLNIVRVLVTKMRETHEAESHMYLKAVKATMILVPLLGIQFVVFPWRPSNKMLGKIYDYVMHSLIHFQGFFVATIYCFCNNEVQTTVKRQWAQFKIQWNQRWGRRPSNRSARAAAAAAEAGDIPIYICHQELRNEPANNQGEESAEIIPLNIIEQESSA
# [2] = target: T2, human amylin receptor (calcitonin receptor co-expressed with receptor activity modifying protein, RAMP3) (human, UniProt P30988 25-474; O60896 24-148); assay: cell-based or functional assay
# T2 sequence (looked up) 1: T1 sequence (looked up)
# T2 sequence (looked up) 2: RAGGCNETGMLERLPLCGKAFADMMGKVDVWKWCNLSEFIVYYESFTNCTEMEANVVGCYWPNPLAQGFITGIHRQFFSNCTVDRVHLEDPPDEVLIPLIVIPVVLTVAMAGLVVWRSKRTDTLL
Binder,EC50 (cAMP production) [1],EC50 (cAMP production) [2],Ratio (EC50 hCTR / EC50 hAMYR3) [2]
{C18 diacid}-[γGlu][γGlu]GGGKCNTATCATQRLANFLVHSSNNFGPILPPTNVGSNTY-NH2 (disulfide 7-12) [Peptide 4 (SEQ ID NO: 4)],7.53 nM,0.248 nM,30
B1,0.731 nM,0.134 nM,5
B2,1.25 nM,0.105 nM,12
B3,3.41 nM,0.136 nM,25
B4,0.589 nM,0.238 nM,2
B5,2.8 nM,0.409 nM,7
K([γGlu-γGlu-C18 diacid])CNTATCATQRLANFLVHS[αMeS]NNFGPILPPTNVGSNTY-NH2 (disulfide 2-7) [Peptide 22 (SEQ ID NO: 22)],6.54 nM,0.162 nM,40
